From US20140087995A1 (published 2014) come the findings set out here.

The target in assay [1] is T1, human calcitonin receptor (human, UniProt P30988 25-474).
T1 construct: whole, on cells; Used as cell membranes prepared from the transfected BHK cells (Assay VII), not as intact cells; also called hCTR; hCT
T1 sequence (looked up): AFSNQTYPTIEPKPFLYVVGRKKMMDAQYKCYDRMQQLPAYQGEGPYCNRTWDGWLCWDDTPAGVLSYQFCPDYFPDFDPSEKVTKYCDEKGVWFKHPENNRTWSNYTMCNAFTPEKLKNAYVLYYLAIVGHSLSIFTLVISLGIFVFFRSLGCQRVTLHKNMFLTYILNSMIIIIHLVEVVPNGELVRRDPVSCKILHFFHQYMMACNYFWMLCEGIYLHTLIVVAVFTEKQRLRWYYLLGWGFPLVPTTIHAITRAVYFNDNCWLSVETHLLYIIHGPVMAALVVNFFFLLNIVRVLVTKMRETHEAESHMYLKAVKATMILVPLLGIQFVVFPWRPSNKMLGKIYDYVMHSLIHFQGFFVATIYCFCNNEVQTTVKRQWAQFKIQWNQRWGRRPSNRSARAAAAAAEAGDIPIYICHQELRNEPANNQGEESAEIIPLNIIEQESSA
The experiment in a line: SPA competition against 125I-calcitonin, membranes with human calcitonin receptor (Assay VII). In short, it runs like this: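 BHK hCTR membranes 35 ng/μL + SPA beads 0.05 mg/well; buffer 50 mM Hepes pH 7.4, 1 mM CaCl2, 5 mM MgCl₂, 0.1% OA, 0.02% Tween20. 120 min, 25° C., shaking. Scintillation count; IC50 by one-site binding competition.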

Assay [2] concerns the target T2, human amylin receptor (human calcitonin receptor co-expressed with RAMP-3; amylin 3(a) receptor) (human, UniProt P30988 25-474; O60896 24-148, limits assumed).
T2 construct: whole, on cells; Used as cell membranes prepared from Amylin 3(a)/CRE-luc BHK cells (Assay V), not as intact cells; also called hAmylin-R; hAmylinR
T2 sequence (looked up) 1: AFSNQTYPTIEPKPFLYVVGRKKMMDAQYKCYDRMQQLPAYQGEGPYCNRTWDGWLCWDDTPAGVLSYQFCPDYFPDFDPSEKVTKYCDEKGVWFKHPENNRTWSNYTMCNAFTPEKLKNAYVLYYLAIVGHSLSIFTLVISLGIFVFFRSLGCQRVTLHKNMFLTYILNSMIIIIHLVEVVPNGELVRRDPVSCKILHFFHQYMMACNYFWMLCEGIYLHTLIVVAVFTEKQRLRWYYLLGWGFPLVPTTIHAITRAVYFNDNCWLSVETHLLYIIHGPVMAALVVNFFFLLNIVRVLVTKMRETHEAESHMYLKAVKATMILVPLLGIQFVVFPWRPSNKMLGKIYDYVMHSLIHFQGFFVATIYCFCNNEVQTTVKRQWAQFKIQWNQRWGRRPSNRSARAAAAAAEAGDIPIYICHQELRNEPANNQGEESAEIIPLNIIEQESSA
T2 sequence (looked up) 2: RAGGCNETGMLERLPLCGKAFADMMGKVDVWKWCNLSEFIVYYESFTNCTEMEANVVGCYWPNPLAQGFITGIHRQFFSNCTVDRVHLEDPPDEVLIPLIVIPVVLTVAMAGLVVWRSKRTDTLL
The experiment in a line: ratio of hCTR binding IC50 to hAmylin-R binding IC50 (reference: human calcitonin receptor). In short, it runs like this: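 Competition binding by SPA with cell membranes (35 ng/μL) and SPA beads in 50 mM Hepes pH 7.4 with 1 mM CaCl2, 5 mM MgCl2, 0.1% OA and 0.02% Tween20. Incubated 120 min at 25 °C with shaking, then counted.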

Numbered stars: 1 amine (or outer) side, 2 acyl side, 3 side chain; on linkers, the order of the positions; unused ones are H or OH. Bridge positions count the residues as written; N and C are the ends. Side chains are listed from the residue outwards. Ends that are not written are not given here. * marks the point of attachment. C20 diacid = O=C(O)CCCCCCCCCCCCCCCCCCC(=O)*; γGlu = O=C(O)[C@H](CCC(=O)[*:2])N[*:1]

B1: N^ε1-[(4S)-4-carboxy-4-(19-carboxynonadecanoylamino)butanoyl]-[His14,Arg17,Pro21,Pro27,Pro31]-h-amylin (peptide)
peptide: K([γGlu-C20 diacid])CNTATCATQRLAHFLRHSSPNFGAIPSSTPVGSNTY-NH2
modifications: disulfide 2-7; N-terminus assumed
SMILES: CC[C@H](C)[C@H](NC(=O)[C@H](C)NC(=O)CNC(=O)[C@H](Cc1ccccc1)NC(=O)[C@H](CC(N)=O)NC(=O)[C@@H]1CCCN1C(=O)[C@H](CO)NC(=O)[C@H](CO)NC(=O)[C@H](Cc1c[nH]cn1)NC(=O)[C@H](CCCNC(=N)N)NC(=O)[C@H](CC(C)C)NC(=O)[C@H](Cc1ccccc1)NC(=O)[C@H](Cc1c[nH]cn1)NC(=O)[C@H](C)NC(=O)[C@H](CC(C)C)NC(=O)[C@H](CCCNC(=N)N)NC(=O)[C@H](CCC(N)=O)NC(=O)[C@@H](NC(=O)[C@H](C)NC(=O)[C@@H]1CSSC[C@H](NC(=O)[C@@H](N)CCCCNC(=O)CC[C@H](NC(=O)CCCCCCCCCCCCCCCCCCC(=O)O)C(=O)O)C(=O)N[C@@H](CC(N)=O)C(=O)N[C@@H]([C@@H](C)O)C(=O)N[C@@H](C)C(=O)N[C@@H]([C@@H](C)O)C(=O)N1)[C@@H](C)O)C(=O)N1CCC[C@H]1C(=O)N[C@@H](CO)C(=O)N[C@@H](CO)C(=O)N[C@H](C(=O)N1CCC[C@H]1C(=O)N[C@H](C(=O)NCC(=O)N[C@@H](CO)C(=O)N[C@@H](CC(N)=O)C(=O)N[C@H](C(=O)N[C@@H](Cc1ccc(O)cc1)C(N)=O)[C@@H](C)O)C(C)C)[C@@H](C)O
notes: also called compound 62
In the case of B1, in assay [1], the IC50 was determined as 6.17 nM. Further, the “Ratio hCT/hAmylin binding” value in assay [2] worked out at 63.

B2: N^ε1N^ε1-[(4S)-4-carboxy-4-(19-carboxynonadecanoylamino)butanoyl]-[His14,Arg17,Pro21,Pro27,Pro34]-h-amylin (peptide)
peptide: K([γGlu-C20 diacid])CNTATCATQRLAHFLRHSSPNFGAIPSSTNVGPNTY-NH2
modifications: disulfide 2-7; N-terminus assumed
SMILES: CC[C@H](C)[C@H](NC(=O)[C@H](C)NC(=O)CNC(=O)[C@H](Cc1ccccc1)NC(=O)[C@H](CC(N)=O)NC(=O)[C@@H]1CCCN1C(=O)[C@H](CO)NC(=O)[C@H](CO)NC(=O)[C@H](Cc1c[nH]cn1)NC(=O)[C@H](CCCNC(=N)N)NC(=O)[C@H](CC(C)C)NC(=O)[C@H](Cc1ccccc1)NC(=O)[C@H](Cc1c[nH]cn1)NC(=O)[C@H](C)NC(=O)[C@H](CC(C)C)NC(=O)[C@H](CCCNC(=N)N)NC(=O)[C@H](CCC(N)=O)NC(=O)[C@@H](NC(=O)[C@H](C)NC(=O)[C@@H]1CSSC[C@H](NC(=O)[C@@H](N)CCCCNC(=O)CC[C@H](NC(=O)CCCCCCCCCCCCCCCCCCC(=O)O)C(=O)O)C(=O)N[C@@H](CC(N)=O)C(=O)N[C@@H]([C@@H](C)O)C(=O)N[C@@H](C)C(=O)N[C@@H]([C@@H](C)O)C(=O)N1)[C@@H](C)O)C(=O)N1CCC[C@H]1C(=O)N[C@@H](CO)C(=O)N[C@@H](CO)C(=O)N[C@H](C(=O)N[C@@H](CC(N)=O)C(=O)N[C@H](C(=O)NCC(=O)N1CCC[C@H]1C(=O)N[C@@H](CC(N)=O)C(=O)N[C@H](C(=O)N[C@@H](Cc1ccc(O)cc1)C(N)=O)[C@@H](C)O)C(C)C)[C@@H](C)O
notes: also called compound 67
For B2, in assay [1], the IC50 came out at 4.63 nM. Moreover, the “Ratio hCT/hAmylin binding” value in assay [2] was found to be 51.6.

Usually IC50 stands for the point on the concentration scale where inhibition reaches its midpoint.
